One experiment concerns the target T1, BRD3 (human, UniProt Q15059 1-726).
T1 construct: also called bromodomain containing 3; FLAG-BRD3
In words: co-immunoprecipitation, 293T (ectopic) and LNCaP (endogenous) cells. Here is the method:
(§1) To immunoprecipitate the ectopically expressed FLAG-tagged proteins, transfected cells were lysed 24 hours post-transfection in BC100 buffer. The whole-cell lysates were immunoprecipitated with the monoclonal anti-FLAG antibody-conjugated M2 agarose beads (Sigma-Aldrich) at 4° C. overnight. After three washes with lysis buffer, followed by two washes with BC100 buffer, the bound proteins were eluted using FLAG-Peptide (Sigma-Aldrich) prepared in BC100 for 3 hours at 4° C. The eluted protein sample was resolved by SDS-PAGE. To immunoprecipitate the endogenous proteins, cells were lysed with 1× cell lysis buffer (Cell Signaling Technology), and the lysate was centrifuged. The supernatant was precleared with protein AIG beads (Sigma-Aldrich) and incubated with the indicated antibody and protein A/G beads at 4° C. overnight. Beads were washed five times with lysis buffer and resuspended in sample buffer and analyzed by SDS-PAGE.
(§2) To identify new degradation substrates of SPOP, yeast two-hybrid screens using the full-length SPOP as bait were performed.

In another experiment the target is T2, BRD2 (human, UniProt P25440 1-801).
T2 construct: also called bromodomain containing 2; FLAG-BRD2
The description is as above. Here is the method: as §1, §2

For experiment [1], the target named is T3, BRD3 SBC motif-deleted mutant (human, UniProt Q15059 1-726, limits assumed).
T3 construct: Deletion mutant; also called FLAG-BRD3 mutant; not shown: FLAG tag
In words: co-IP with anti-FLAG antibody, 293T cells.

In experiment [2] the target is T4, BRD2 SBC motif-deleted mutant (human, UniProt P25440 1-801, limits assumed).
T4 construct: Deletion mutant; also called FLAG-BRD2 mutant; not shown: FLAG tag
In words: co-IP with anti-FLAG antibody, 293T cells.

The target in experiment [3] is T5, BRD4 SBC motif-deleted mutant (human, UniProt O60885 1-1362, limits assumed).
T5 construct: Deletion mutant; also called FLAG-BRD4 mutant; not shown: FLAG tag
In words: co-IP with anti-FLAG antibody, 293T cells.

B1: SPOP, wild-type (other, human, UniProt O43791 1-374, looked up)
chain: MSRVPSPPPPAEMSSGPVAESWCYTQIKVVKFSYMWTINNFSFCREEMGEVIKSSTFSSGANDKLKWCLRVNPKGLDEESKDYLSLYLLLVSCPKSEVRAKFKFSILNAKGEETKAMESQRAYRFVQGKDWGFKKFIRRDFLLDEANGLLPDDKLTLFCEVSVVQDSVNISGQNTMNMVKVPECRLADELGGLWENSRFTDCCLCVAGQEFQAHKAILAARSPVFSAMFEHEMEESKKNRVEINDVEPEVFKEMMCFIYTGKAPNLDKMADDLLAAADKYALERLKVMCEDALCSNLSVENAAEILILADLHSADQLKTQAVDFINYHASDVLETSGWKSMVVSHPHLVAEAYRSLASAQCPFLGPPRKRLKQS
notes: also called SPOP-WT; Myc-SPOP
In the case of B1, the binding result with BRD3 was “binds”; with BRD2, “binds”; in experiment [1] it was “no binding”; in experiment [2], “no binding”; in experiment [3], “no binding”.
